Test results: patent US20190127459 (published 2019)

Molecular target: T1, mouse IL-22R (mouse, UniProt Q80XZ4)
T1 chain: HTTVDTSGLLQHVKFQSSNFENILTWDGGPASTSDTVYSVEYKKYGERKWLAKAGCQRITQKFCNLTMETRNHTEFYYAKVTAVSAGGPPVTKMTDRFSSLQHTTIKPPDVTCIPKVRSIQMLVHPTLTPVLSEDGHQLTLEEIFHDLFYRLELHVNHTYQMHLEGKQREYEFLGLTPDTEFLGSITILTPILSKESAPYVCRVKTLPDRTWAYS

- binding result: no binding
B1: 230C9 (antibody, V domains shown)
VH: QVQLVESGGGLVQPGGSLRLSCAASGFTFSSYDMNWVRQAPGKGLEWVSSIYNDASNTAYSDSVKGRFTISRDNSKNTLYLQMNSLRAEDTAVYYCAKVGFSGTYYSESWGQGTLVTVSS
VL: SYELTQPSSVSVALGQTARITCQGGYYAHWYQQKPGQAPVLVIYGQNNRPSGIPERFSGSGAGNTATLTISRAQAEDEADYYCQSGSSSSNAVFGGGTKLTVL
